Results published in PMC9352680, “A comprehensive thermodynamic model for RNA binding by the Saccharomyces cerevisiae Pumilio protein PUF4”.

Molecular target: T1, PUF4 RNA-binding domain (Saccharomyces cerevisiae, UniProt P25339 537-888)
T1 sequence: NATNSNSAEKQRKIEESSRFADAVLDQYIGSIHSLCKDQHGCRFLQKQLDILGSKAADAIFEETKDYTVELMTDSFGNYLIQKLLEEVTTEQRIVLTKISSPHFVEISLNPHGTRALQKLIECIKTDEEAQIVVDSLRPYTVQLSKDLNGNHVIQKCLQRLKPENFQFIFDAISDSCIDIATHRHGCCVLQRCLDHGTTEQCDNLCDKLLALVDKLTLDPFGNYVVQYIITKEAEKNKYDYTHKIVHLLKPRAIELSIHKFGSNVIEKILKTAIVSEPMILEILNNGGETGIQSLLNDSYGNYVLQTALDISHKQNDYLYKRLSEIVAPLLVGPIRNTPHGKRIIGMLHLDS
Test: Mg; RNA-MaP; 20 mM Na-HEPES pH 7.4, 30 mM KOAc, 0.75 mM MgCl2, 0.1% Tween-20, 5% glycerol, 0.1 mg/mL BSA, 2 mM DTT; 25 C; 0.0125-409.6 nM protein
Details: tags: N-His6-TEV cleaved; C-SNAP kept, Cy3B-labelled; label: tethered on chip by stalled RNA polymerase

B1: Id_ii_S1_P5E.4_K5.3_C5.2_[C-2G]_[T-1C]_H5.3_A5.1_F5.1_T5.2_[A12T] (ssRNA)
RNA: UCUCUUGCACACUUAUUAUUUCUCUU
Work on B1 yielded a Kd of 1.42 µM.

B2: Id_ii_S1_P5E.4_K5.3_C5.2_[C-2T]_[T-1C]_H5.3_A5.1_F5.1_T5.2_[T11C]_[A12G] (ssRNA)
RNA: UCUCUUUCACACUUAUUACGUCUCUU
Binder B2 has a Kd greater than 2.3 µM.

B3: Id_ii_S1_P5E.4_K5.3_C5.2_[C-2G]_H5.3_A5.1_F5.1_T5.2_[T11C]_[A12C] (ssRNA)
RNA: UCUCUUGUACACUUAUUACCUCUCUU
For B3, the Kd was 0.00322 µM.

B4: Id_ii_S1_P5E.4_K5.3_C5.2_[C-2G]_[T-1C]_H5.3_A5.1_F5.1_T5.2_[A12C] (ssRNA)
RNA: UCUCUUGCACACUUAUUAUCUCUCUU
Work on B4 yielded a Kd of 1.16 µM.

B5: Id_ii_S1_P5E.4_K5.3_C5.2_[C-2G]_[T-1C]_H5.3_A5.1_F5.1_T5.2_[T11C]_[A12C] (ssRNA)
RNA: UCUCUUGCACACUUAUUACCUCUCUU
B5 gave a Kd of 1.32 µM.

B6: Id_ii_S1_P5E.4_K5.3_C5.2_[C-2G]_[T-1C]_H5.3_A5.1_F5.1_T5.2_[T11A]_[A12T] (ssRNA)
RNA: UCUCUUGCACACUUAUUAAUUCUCUU
Work on B6 yielded a Kd of 1.37 µM.

B7: Id_ii_S1_P5E.4_K5.3_C5.2_[C-2G]_H5.3_A5.1_F5.1_T5.2_[A12T] (ssRNA)
RNA: UCUCUUGUACACUUAUUAUUUCUCUU
B7 was tested, and the Kd was 0.00373 µM.

B8: Id_ii_S1_P5E.4_K5.3_C5.2_[C-2G]_[T-1C]_H5.3_A5.1_F5.1_T5.2_[T11C] (ssRNA)
RNA: UCUCUUGCACACUUAUUACAUCUCUU
Binder B8 has a Kd of 1.21 µM.

B9: Id_ii_S1_P5E.4_K5.3_C5.2_[C-2G]_H5.3_A5.1_F5.1_T5.2_[A12C] (ssRNA)
RNA: UCUCUUGUACACUUAUUAUCUCUCUU
B9 was tested, and the Kd was 0.00294 µM.

B10: Id_ii_S1_P5E.4_K5.3_C5.2_[C-2T]_[T-1C]_H5.3_A5.1_F5.1_T5.2_[T11A]_[A12T] (ssRNA)
RNA: UCUCUUUCACACUUAUUAAUUCUCUU
With B10 the Kd was greater than 2.3 µM.

B11: Id_ii_S1_P5E.4_K5.3_C5.2_[C-2G]_H5.3_A5.1_F5.1_T5.2_[T11A]_[A12T] (ssRNA)
RNA: UCUCUUGUACACUUAUUAAUUCUCUU
B11 showed a Kd of 0.00475 µM.

B12: Ib_S1_P5E.1_K5.1_C5.1_H5.1_A5.1_F5.1_[T8C]_[A10C]_T5.1 (ssRNA)
RNA: UCUCUUUGUAUUACUCUCUCUU
With B12 the Kd was 0.133 µM.

B13: Id_ii_S1_P5E.4_K5.3_C5.2_[C-2G]_[T-1C]_H5.3_A5.1_F5.1_T5.2 (ssRNA)
RNA: UCUCUUGCACACUUAUUAUAUCUCUU
In the case of B13, the Kd is reported as 0.766 µM.

B14: Id_ii_S1_P5E.4_K5.3_C5.2_[C-2G]_H5.3_A5.1_F5.1_T5.2_[T11C]_[A12T] (ssRNA)
RNA: UCUCUUGUACACUUAUUACUUCUCUU
B14 gave a Kd of 0.00588 µM.

B15: Ib_S1_P5E.1_K5.1_C5.1_H5.1_A5.1_F5.1_[T8C]_[A10T]_T5.1 (ssRNA)
RNA: UCUCUUUGUAUUACUUUCUCUU
In the case of B15, the Kd is reported as 0.0446 µM.

B16: Id_ii_S1_P5E.4_K5.3_C5.2_[C-2G]_[T-1C]_H5.3_A5.1_F5.1_T5.2_[T11C]_[A12T] (ssRNA)
RNA: UCUCUUGCACACUUAUUACUUCUCUU
Work on B16 yielded a Kd of 1.53 µM.

B17: Id_ii_S1_P5E.4_K5.3_C5.2_[C-2G]_H5.3_A5.1_F5.1_T5.2_[T11G]_[A12C] (ssRNA)
RNA: UCUCUUGUACACUUAUUAGCUCUCUU
B17 gave a Kd of 0.00516 µM.

B18: Id_ii_S1_P5E.4_K5.3_C5.2_[C-2T]_[T-1G]_H5.3_A5.1_F5.1_T5.2_[A12C] (ssRNA)
RNA: UCUCUUUGACACUUAUUAUCUCUCUU
Work on B18 yielded a Kd greater than 2.3 µM.

B19: Id_ii_S1_P5E.4_K5.3_C5.2_[C-2T]_[T-1C]_H5.3_A5.1_F5.1_T5.2_[T11C]_[A12T] (ssRNA)
RNA: UCUCUUUCACACUUAUUACUUCUCUU
For B19, the Kd was greater than 2.3 µM.

B20: Id_ii_S1_P5E.4_K5.3_C5.2_[C-2G]_H5.3_A5.1_F5.1_T5.2_[T11A] (ssRNA)
RNA: UCUCUUGUACACUUAUUAAAUCUCUU
With B20 the Kd was 0.00363 µM.

B21: Id_ii_S1_P5E.4_K5.3_C5.2_[C-2T]_[T-1C]_H5.3_A5.1_F5.1_T5.2_[T11A]_[A12C] (ssRNA)
RNA: UCUCUUUCACACUUAUUAACUCUCUU
For B21, the Kd was greater than 2.3 µM.

B22: Id_ii_S1_P5E.4_K5.3_C5.2_[C-2G]_[T-1C]_H5.3_A5.1_F5.1_T5.2_[T11A]_[A12C] (ssRNA)
RNA: UCUCUUGCACACUUAUUAACUCUCUU
With B22 the Kd was 1.89 µM.

B23: Id_ii_S1_P5E.4_K5.3_C5.2_[C-2T]_[T-1C]_H5.3_A5.1_F5.1_T5.2_[T11G]_[A12C] (ssRNA)
RNA: UCUCUUUCACACUUAUUAGCUCUCUU
B23 was tested, and the Kd was greater than 2.3 µM.

B24: Id_ii_S1_P5E.4_K5.3_C5.2_[C-2T]_[T-1C]_H5.3_A5.1_F5.1_T5.2_[T11C] (ssRNA)
RNA: UCUCUUUCACACUUAUUACAUCUCUU
Work on B24 yielded a Kd greater than 2.3 µM.

B25: Id_ii_S1_P5E.4_K5.3_C5.2_[C-2T]_[T-1C]_H5.3_A5.1_F5.1_T5.2_[T11A] (ssRNA)
RNA: UCUCUUUCACACUUAUUAAAUCUCUU
B25 showed a Kd greater than 2.3 µM.

B26: Id_ii_S1_P5E.4_K5.3_C5.2_[C-2G]_H5.3_A5.1_F5.1_T5.2 (ssRNA)
RNA: UCUCUUGUACACUUAUUAUAUCUCUU
With B26 the Kd was 0.00391 µM.

B27: Id_ii_S1_P5E.4_K5.3_C5.2_[C-2T]_[T-1C]_H5.3_A5.1_F5.1_T5.2_[T11C]_[A12C] (ssRNA)
RNA: UCUCUUUCACACUUAUUACCUCUCUU
For B27, the Kd was greater than 2.3 µM.
